From US20130287781A1 (GlaxoSmithKline, published 2013)
Read-outs that look alike come from different tables or passages of the source.

Key:
[1] = target: T1, Squirrel monkey NOGO (A56) plus GST tag (squirrel monkey); assay: direct ELISA on GST-NOGO-A56 from squirrel monkey, Abs490
T1 construct: also called GST-NOGO-A56 from squirrel monkey

[2] = target: T2, GST-human NOGO-A56 (human); assay: SPR (Biacore) off-rate on NOGO chip, panel of H6FL CDR H3 variants with L13FL
T2 construct: Expressed in E. coli BL21 from pGEX-6P1 and purified on glutathione-sepharose; the GST tag is part of the protein in the assays; also called GST-Nogo-A 5+6; GST Nogo-A 5 + 6
T2 sequence (chain, as listed by the source limits assumed): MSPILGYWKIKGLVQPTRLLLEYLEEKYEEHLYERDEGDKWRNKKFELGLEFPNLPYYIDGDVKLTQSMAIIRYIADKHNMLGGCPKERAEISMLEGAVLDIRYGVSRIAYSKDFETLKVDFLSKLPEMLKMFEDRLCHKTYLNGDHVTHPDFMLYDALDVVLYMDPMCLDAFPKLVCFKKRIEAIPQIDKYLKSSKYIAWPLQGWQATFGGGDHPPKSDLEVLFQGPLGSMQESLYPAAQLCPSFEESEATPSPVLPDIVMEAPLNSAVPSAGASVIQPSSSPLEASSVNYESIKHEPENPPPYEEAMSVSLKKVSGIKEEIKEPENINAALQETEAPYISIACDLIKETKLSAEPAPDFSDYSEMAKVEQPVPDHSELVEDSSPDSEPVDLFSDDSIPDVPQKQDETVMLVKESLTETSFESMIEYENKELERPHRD

[3] = target: T2, GST-human NOGO-A56; assay: SPR (Biacore), GST-human NOGO-A56 amine-coupled to CM5, antibody flowed over, 37 C
Protocol: (§1) GST-human NOGO-A56 was immobilised to a CM5 chip by primary amine coupling using the Biacore Wizard program designed for targeted immobilisation levels. The CM5 sensor surface was activated by passing a solution of 50 mM N-hydroxy-succinimide (NHS) and 200 mM N-ethyl-N′-dimethylaminopropyl carbonide (EDC). Then GST-human NOGO-A56 in sodium acetate buffer, pH5.0 or pH 4.5, was passed over the chip and immobilised. After immobilisation was complete any still activated esters were blocked by an injection of 1M ethanolamine hydrochloride, pH8.5.
The anti-NOGO mAbs were diluted down in HBS-EP (10 mM HEPES, pH 7.4, 150 mM NaCl, 3 mM EDTA, and 0.005% P-20 surfactant) for the BIAcore 3000 or HBS-EP+ (10 mM HEPES, pH 7.4, 150 mM NaCl, 3 mM EDTA, and 0.05% P-20 surfactant) in the case of the T100 and binding studies were carried out at range of defined antibody concentrations. All runs were referenced against a blanked sensor surface (one that had been activated and blocked as described earlier but had no addition of ligand). Analysis of binding was carried out using the BIAevaluation kinetic analysis software version 4.1 for the BIAcore 3000 and T100 kinetic analysis software version 1.0. […] Unless otherwise stated, the BIAcore experiments were performed at 25° C.

[4] = target: T3, Cynomolgus monkey NOGO (A56) plus GST tag (cynomolgus monkey); assay: SPR (Biacore T100), Nogo-A orthologue amine-coupled to CM5, antibody 0.125-8 nM flowed over; mean
T3 construct: also called cynomolgus Nogo-A; GST-NOGO-A56 from cynomolgus
T3 sequence (chain, as listed by the source limits assumed): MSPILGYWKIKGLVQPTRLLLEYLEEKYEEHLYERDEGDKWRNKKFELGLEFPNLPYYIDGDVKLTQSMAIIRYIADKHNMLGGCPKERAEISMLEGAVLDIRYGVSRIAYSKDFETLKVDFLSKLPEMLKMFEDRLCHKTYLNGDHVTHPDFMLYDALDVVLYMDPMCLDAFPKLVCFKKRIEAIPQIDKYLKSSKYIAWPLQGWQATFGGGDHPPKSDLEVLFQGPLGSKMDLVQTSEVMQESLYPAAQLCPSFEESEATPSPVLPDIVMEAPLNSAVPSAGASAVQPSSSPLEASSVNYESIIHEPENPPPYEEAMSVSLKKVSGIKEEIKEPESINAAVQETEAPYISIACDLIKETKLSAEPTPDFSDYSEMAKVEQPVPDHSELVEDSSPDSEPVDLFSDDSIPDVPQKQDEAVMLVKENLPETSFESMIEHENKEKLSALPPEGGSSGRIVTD
Description: (§2) Approximately 140-180RUs of the various Nogo-A orthologues were captured to the CM5 chip by primary amine coupling. […] The values show the mean and standard deviation (in brackets) of 1-2 independent runs carried out in duplicate with each data set independently analysed prior to calculation of the mean and standard deviation.

[5] = target: T4, Marmoset NOGO (A56) plus GST tag (marmoset); assay: as above
T4 construct: also called GST-NOGO-A56 from marmoset
T4 sequence (chain, as listed by the source limits assumed): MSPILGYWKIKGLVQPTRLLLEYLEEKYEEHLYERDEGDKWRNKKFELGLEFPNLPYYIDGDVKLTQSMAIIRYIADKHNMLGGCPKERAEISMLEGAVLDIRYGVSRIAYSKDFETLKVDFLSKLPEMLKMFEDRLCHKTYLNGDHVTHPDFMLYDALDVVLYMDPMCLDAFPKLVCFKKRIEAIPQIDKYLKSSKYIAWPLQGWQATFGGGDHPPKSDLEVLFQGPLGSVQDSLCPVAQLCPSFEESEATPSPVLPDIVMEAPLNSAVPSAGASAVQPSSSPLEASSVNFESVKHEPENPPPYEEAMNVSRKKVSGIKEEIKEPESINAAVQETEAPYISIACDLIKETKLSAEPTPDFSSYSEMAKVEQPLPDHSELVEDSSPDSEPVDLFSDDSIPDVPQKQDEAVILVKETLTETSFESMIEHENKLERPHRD
Description: as §2

[6] = target: T5, Rat NOGO (A56) plus GST tag (rat); assay: as above
T5 construct: also called GST-NOGO-A56 from rat
T5 sequence (chain, as listed by the source limits assumed): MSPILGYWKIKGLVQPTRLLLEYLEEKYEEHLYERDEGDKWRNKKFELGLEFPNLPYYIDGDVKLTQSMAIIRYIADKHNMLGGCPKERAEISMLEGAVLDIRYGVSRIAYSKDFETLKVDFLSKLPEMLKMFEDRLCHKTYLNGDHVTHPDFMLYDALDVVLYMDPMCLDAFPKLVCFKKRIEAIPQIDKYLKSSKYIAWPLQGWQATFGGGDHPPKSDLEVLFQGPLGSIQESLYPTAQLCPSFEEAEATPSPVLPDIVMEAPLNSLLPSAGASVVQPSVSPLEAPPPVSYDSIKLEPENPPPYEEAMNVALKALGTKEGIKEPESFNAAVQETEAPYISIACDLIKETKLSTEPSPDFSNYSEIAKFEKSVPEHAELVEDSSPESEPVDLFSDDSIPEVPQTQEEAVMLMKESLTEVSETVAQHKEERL
Description: as §2

[7] = target: T1, Squirrel monkey NOGO (A56) plus GST tag; assay: as above
Description: as §2

[8] = target: T4, Marmoset NOGO (A56) plus GST tag; assay: direct ELISA on GST-NOGO-A56 from marmoset, Abs490
[9] = target: T2, GST-human NOGO-A56; assay: SPR (Biacore T100), antigen amine-coupled to CM5, antibody 0.125-8 nM; mean of six runs in duplicate (SD in brackets)
Description: In the first approach, the recombinant Nogo-A was coupled to the surface of the chip and anti-Nogo-A antibodies passed over this surface. In the second approach, Protein A was used to capture the antibody onto the surface of the chip over which the recombinant GST-human Nogo-A56 was passed.
The antigen was bound to the CM5 chip by primary amine coupling. […] The values show the mean and standard deviation (in brackets) of six independent runs carried out in duplicate. Each completed data set was analysed independently prior to the calculation of mean and standard deviation.

[10] = target: T2, GST-human NOGO-A56; assay: SPR (Biacore) off-rate ranking on GST-human NOGO-A56 chip, one experiment
Protocol: as §1
The GST-human NOGO-A56 chip was prepared as for kinetic analysis. Cell supernatants where taken directly from transient transfections of CHO-K1 cells. These were passed directly over the sensor surface and the interaction measured. A mock transfected cell supernatant was used for double referencing to remove any artefacts due to the tissue culture media. All runs were referenced against a blanked sensor surface (one that had been activated and blocked as described earlier but had no addition of ligand). Analysis of binding was carried out using the BIAevaluation kinetic analysis software version 4.1.

[11] = target: T2, GST-human NOGO-A56; assay: SPR (Biacore T100), human Nogo-A amine-coupled to CM5, antibody 0.125-8 nM flowed over; mean
[12] = target: T3, Cynomolgus monkey NOGO (A56) plus GST …; assay: direct ELISA on GST-NOGO-A56 from cynomolgus, Abs490
[13] = target: T2, GST-human NOGO-A56; assay: direct ELISA, human NOGO-A (GST-human NOGO-A56) coated at 1 ug/ml, Abs490
[14] = target: T3, Cynomolgus monkey NOGO (A56) plus GST …; assay: SPR (Biacore), both formats
Description: as §2
(§3) Protein A was immobilised on the surface at about 4000RUs and anti-Nogo-A antibodies were captured at approximately 300-400RUs. […] All the runs were done in duplicates.

[15] = target: T5, Rat NOGO (A56) plus GST tag; assay: SPR (Biacore), both formats
Description: as §2, §3

[16] = target: T2, GST-human NOGO-A56; assay: competition ELISA on coated GST-Nogo-A 5+6; competitor 2A10 pre-mixed, bound 2A10 detected with anti-mouse IgG-HRP
[17] = target: T1, Squirrel monkey NOGO (A56) plus GST tag; assay: SPR (Biacore), reverse format: antibody captured by Protein A; end of the range tied to squirrel monkey by Table 19
Description: (§4) Protein A was immobilised on the surface at about 4000RUs and anti-Nogo-A antibodies were captured at approximately 300-400RUs. […] All the runs were done in duplicates. The values show the mean and standard deviation (in brackets) of 1-3 independent runs with each run done in duplicate and each data set analysed independently prior to calculation of the mean and standard deviation.

[18] = target: T6, peptide 7 (biotin-SGSG-VLPDIVMEAPLNSAVP) (human, N-terminal biotin); assay: peptide ELISA: biotinylated 16-mer peptide on streptavidin, antibody at 5 ug/ml, kappa-chain peroxidase conjugate, Abs490
T6 peptide: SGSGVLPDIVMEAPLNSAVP
Protocol: (§5) Streptavidin at 5 μg/ml in sterile water was coated onto Nunc immunosorp plates (100 μl per well) at 37° C. overnight. The plates were rinsed 3 times with PBS containing 0.05% Tween (PBST) then blocked with 3% BSA in PBST at 4° C. overnight. The plates were washed 3 times with PBST. Peptides were then added to the wells at a concentration of approximately 10 μg/ml (diluted in 3% BSA in PBST) and incubated at room temperature for 1 hour. The plates were washed 3 times with PBST then incubated for 1 hour with anti-NOGO antibodies diluted to 5 μg/ml in 3% BSA in PBST. […] The plates were washed 3 times with PBST and then incubated with 100 μl OPD peroxidase substrate (Sigma) per well for 10 minutes. The colour reaction was stopped by the addition of 50 μl 3 molar H₂SO₄. Absorbance at 490 nm was measured using a plate reader.

[19] = target: T7, peptide 6 (biotin-SGSG-TPSPVLPDIVMEAPLN) (human, N-terminal biotin); assay: as above
T7 peptide: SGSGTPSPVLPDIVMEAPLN
Protocol: as §5

[20] = target: T4, Marmoset NOGO (A56) plus GST tag; assay: SPR (Biacore), reverse format: antibody captured by Protein A; end of the range tied to marmoset by Table 19
Description: as §4

[21] = target: T8, Human C1q (Sigma, C0660) (human, UniProt P02745 23-245; P02746 28-253; P02747 29-245); assay: C1q ELISA: antibody coated at 1 mcg/ml, human C1q added, anti-human C1q-HRP, Abs490
T8 construct: Bought protein
T8 sequence (P02745 23-245 limits assumed, chain 1 of 3): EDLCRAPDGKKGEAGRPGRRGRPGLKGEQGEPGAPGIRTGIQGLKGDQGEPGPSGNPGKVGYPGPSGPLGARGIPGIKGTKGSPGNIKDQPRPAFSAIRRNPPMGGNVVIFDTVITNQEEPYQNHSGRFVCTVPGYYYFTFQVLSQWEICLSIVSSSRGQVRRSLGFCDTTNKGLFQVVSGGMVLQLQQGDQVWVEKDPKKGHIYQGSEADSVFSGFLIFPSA
T8 sequence (P02746 28-253 limits assumed, chain 2 of 3): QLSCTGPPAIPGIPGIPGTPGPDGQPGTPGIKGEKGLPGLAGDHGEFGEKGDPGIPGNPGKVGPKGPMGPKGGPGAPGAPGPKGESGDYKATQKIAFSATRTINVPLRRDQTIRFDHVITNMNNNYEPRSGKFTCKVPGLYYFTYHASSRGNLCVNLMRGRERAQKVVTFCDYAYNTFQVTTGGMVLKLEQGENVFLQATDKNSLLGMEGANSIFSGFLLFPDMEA
T8 sequence (P02747 29-245 limits assumed, chain 3 of 3): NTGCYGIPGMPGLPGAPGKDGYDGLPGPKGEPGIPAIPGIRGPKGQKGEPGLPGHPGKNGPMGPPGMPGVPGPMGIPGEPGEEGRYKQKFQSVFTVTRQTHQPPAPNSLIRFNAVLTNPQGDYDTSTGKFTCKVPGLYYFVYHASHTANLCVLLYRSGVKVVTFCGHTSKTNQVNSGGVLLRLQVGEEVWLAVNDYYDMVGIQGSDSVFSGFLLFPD
Description: ELISA plates were coated with a fixed concentration of the purified humanised and control antibodies (1 mcg/ml).

[22] = target: T2, GST-human NOGO-A56; assay: competition ELISA on coated GST-Nogo-A 5+6; competitor 2A10 pre-mixed, bound 2A10 detected with anti-mouse IgG-HRP; remark: listed apart in the source
Description: Recombinant human Nogo-A (GST-Nogo-A 5+6) was coated to the plates. […] IC50 values were derived using Robosage.

[23] = target: T3, Cynomolgus monkey NOGO (A56) plus GST …; assay: SPR (Biacore), reverse format: antibody captured by Protein A
Description: as §4

[24] = target: T5, Rat NOGO (A56) plus GST tag; assay: as above
Description: as §4

T1 sequence (chain, as listed by the source limits assumed): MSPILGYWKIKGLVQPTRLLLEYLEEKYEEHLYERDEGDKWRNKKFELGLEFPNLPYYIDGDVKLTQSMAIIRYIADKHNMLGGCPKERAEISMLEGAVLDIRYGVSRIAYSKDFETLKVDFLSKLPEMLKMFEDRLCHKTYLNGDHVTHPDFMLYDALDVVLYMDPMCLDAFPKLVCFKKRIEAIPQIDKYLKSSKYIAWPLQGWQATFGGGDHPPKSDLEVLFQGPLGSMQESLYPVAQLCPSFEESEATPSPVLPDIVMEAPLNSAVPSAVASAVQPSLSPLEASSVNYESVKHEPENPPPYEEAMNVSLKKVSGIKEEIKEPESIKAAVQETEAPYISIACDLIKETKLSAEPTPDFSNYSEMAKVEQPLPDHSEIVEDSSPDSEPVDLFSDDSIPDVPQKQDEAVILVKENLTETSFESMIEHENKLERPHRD

B1: HcLc (chimera of 2A10: murine 2A10 VH and VL with human IgG constant regions) (antibody, V domains shown)
VH: QVQLQQPGTELVKPGASVKLSCKASGYTFTSYWMHWVKQRPGQGLEWIGNINPSNGGTNYNEKFKSKATLTVDKSSSTAYMQLSSLTSEDSAVYYCELGQGYWGQGTLVTVSS
VL: DIVITQDELSNPVTSGESVSISCRSSKSLLYKDGKTYLNWFLQRPGQSPQLLIYLMSTRASGVSDRFSGSGSGTDFTLEISRVKAEDVGVYYCQQLVEYPLTFGAGTKLELKR
notes: also called chimeric antibody; chimeric form of the parental antibody
- EC50 (read off the curve) [1]: ~0.07 µg/mL
- koff [2]: 0.00558 s⁻¹
- Kd [3]: 1460 pM
- koff [3]: 0.00774 s⁻¹
- kon [3]: 5.08e+06 M⁻¹ s⁻¹
- Kd [4]: 1680 pM
- Kd [5]: 1420 pM
- Kd [6]: 1120 pM
- Kd [7]: 1540 pM
- EC50 (read off the curve) [8]: ~0.09 µg/mL
- Kd [9]: 1860 pM
- koff [10]: 0.00266 s⁻¹
- Kd [11]: 1860 pM
- EC50 (read off the curve) [12]: ~0.1 µg/mL
- EC50 (read off the curve) [13]: ~0.04 µg/mL
- fold of the affinity for human Nogo-A [14]: ≤ 8.5 fold
- fold of the affinity for human Nogo-A [15]: ≤ 4 fold

B2: H28L16 (antibody, human IgG1, kappa)
heavy: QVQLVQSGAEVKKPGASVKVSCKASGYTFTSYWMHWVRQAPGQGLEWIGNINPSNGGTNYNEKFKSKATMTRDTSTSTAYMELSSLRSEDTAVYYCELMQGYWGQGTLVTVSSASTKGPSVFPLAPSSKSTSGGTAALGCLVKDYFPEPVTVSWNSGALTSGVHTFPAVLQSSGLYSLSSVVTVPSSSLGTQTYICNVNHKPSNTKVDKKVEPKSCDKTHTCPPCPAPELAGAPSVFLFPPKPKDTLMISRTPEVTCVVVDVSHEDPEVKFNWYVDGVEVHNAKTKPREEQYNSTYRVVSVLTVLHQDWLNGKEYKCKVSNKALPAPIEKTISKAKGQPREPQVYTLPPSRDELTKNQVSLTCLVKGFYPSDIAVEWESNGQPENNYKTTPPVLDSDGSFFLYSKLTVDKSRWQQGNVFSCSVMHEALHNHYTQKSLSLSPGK
light: DIVMTQSPLSNPVTLGQPVSISCRSSKSLLYKDGKTYLNWFLQRPGQSPQLLIYLMSTRASGVPDRFSGGGSGTDFTLKISRVEAEDVGVYYCQQLVEYPLTFGQGTKLEIKRTVAAPSVFIFPPSDEQLKSGTASVVCLLNNFYPREAKVQWKVDNALQSGNSQESVTEQDSKDSTYSLSSTLTLSKADYEKHKVYACEVTHQGLSSPVTKSFNRGEC
notes: IgG1 (L235A, G237A) / kappa; CAMPATH-1H signal (1-19) left out; also called H28FL L16FL; NOGO H28L16
- IC50 (read off the curve) [16]: ~4 µg/mL
- EC50 (read off the curve) [1]: ~0.05 µg/mL
- Kd [3]: 678 pM
- koff [3]: 0.00524 s⁻¹
- kon [3]: 7.73e+06 M⁻¹ s⁻¹
- fold lower affinity than for human Nogo-A [17]: 17 fold
- Kd [4]: 670 pM
- Kd [5]: 626 pM
- Kd [6]: 330 pM
- Kd [7]: 610 pM
- EC50 (read off the curve) [8]: ~0.04 µg/mL
- binding result [18]: binds
- binding result [19]: binds
- Kd [9]: 640 pM
- fold lower affinity than for human Nogo-A [20]: 12 fold
- binding result [21]: binds
- Kd [11]: 640 pM
- kon [11]: 6.97e+06 M⁻¹ s⁻¹
- IC50 (read off the curve) [22]: ~4 µg/mL
- fold lower affinity than for human Nogo-A [23]: 8.5 fold
- fold lower affinity than for human Nogo-A [24]: ~4 fold
- EC50 (read off the curve) [12]: ~0.05 µg/mL
